Reference: the RNAGym collection of RNA variant scans (doi:10.1101/gr.219683.116)

B1: mRNA-splicing (parent)
chain: AGUUGCUGCUGGGAGCUCCAGCACAGUGAAAUGGACAGAAGGGCAGAGCAA

Variants of: B1
Test: exon inclusion enrichment index; higher = more inclusion; WT1 exon 5 minigene, HEK293

Compared with AGUUGAAGAAGGGAGCUCCAGCACAGUGACAUGGACAGAAGGGCAGAGCAA [C6A U7A C9A U10A A30C], AGUUACCACCGGGAGCUCCAGCACAGUGAAAUGGACAGCCGGGCAGAGCAA [G5A U7C G8A U10C A39C A40C] is higher in “exon inclusion enrichment index” value: 0.809 for the first, 3.03 for the second.

First: AGUUAGGGAUGGGAGCUCCAGCACAGUGAAAUGGACAGAAGGGCCCAGCAA [G5A C6G U7G C9A A45C G46C]
Second: AGUUUCUUUUGGGAGCUCCAGCACAGUGAAAUGGACAGACAGGCAGAGCAA [G5U G8U C9U A40C G41A]
The “exon inclusion enrichment index” value of the first is lower: 0.00399 for the first, 0.0439 for the second.

First: AGUUACCACCGGGCGCUCCAGCACAGUGAAAUGGACAGAAGGGCAGAGCAA [G5A U7C G8A U10C A14C]
Second: AGUUACCACCGGGAGCUGGAGCACAGUGAAAUGGACAGAAGGGCAGAGCAA [G5A U7C G8A U10C C18G C19G]
The “exon inclusion enrichment index” value of the first is lower: 1.69 for the first, 2.62 for the second.

Going from AGUUAUAUAUGGGAGCGACAGCACAGUGAAAUGGACAGAAGGGCAGAGCAA [G5A C6U U7A G8U C9A U17G C18A] to AGUUCACACACAGAGCUCCAGCACAGUGAAAUGGACAGAAGGGCAGAGCAA [G5C C6A U7C G8A U10A G11C G12A], the “exon inclusion enrichment index” value rises from 0.0489 to 0.0929.

Going from AGUUCACACACUGAGCUCCAGCACAGUGAAAUGGACAGAAGGGCAGAGCAA [G5C C6A U7C G8A U10A G11C G12U] to AGUUCGCGCCGGGAGCUCCAGCACACGGAAAUGGACAGAAGGGCAGAGCAA [G5C C6G U7C U10C G26C U27G], the “exon inclusion enrichment index” value rises from 0.0425 to 4.43.

Compared with AGUGUGCGCCGGGAGCUCCAGCACAGUGAAAUGGACAGAAGGGCAGAGCAA [U4G G5U C6G U7C U10C], AGUUCUUCUCGGGAGCUCCAGCACACUGAAAUGGACAGAAGGGCAGAGCAA [G5C C6U G8C C9U U10C G26C] is higher in “exon inclusion enrichment index” value: 0.917 for the first, 2.29 for the second.

Going from AGUUCUUCUCGGGAGCUCCAGCAUUGUGAAAUGGACAGAAGGGCAGAGCAA [G5C C6U G8C C9U U10C C24U A25U] to AGUUCUUCUCGUGAGCUCCAGCACAGUGAAAUGGACAGAAGGGCAGAGCAA [G5C C6U G8C C9U U10C G12U], the “exon inclusion enrichment index” value falls from 1.95 to 1.11.

Going from AGUUUCUUUUGGGAGCUCCAGCGGAGUGAAAUGGACAGAAGGGCAGAGCAA [G5U G8U C9U A23G C24G] to AGUUGACGACGGGAGCUCCAGCACAGUGAAAUGGACAGAAGGUAAGAGCAA [C6A U7C C9A U10C G43U C44A], the “exon inclusion enrichment index” value falls from 0.604 to 0.0402.

First: AGUUGAAGAAGGGAGCUCCAGCACAGUCGAAUGGACAGAAGGGCAGAGCAA [C6A U7A C9A U10A G28C A29G]
Second: AGUUUCUUUUGCGAGCUCCAGCACAGUGAAAUGGACAGAAGGGCAGAGCAA [G5U G8U C9U G12C]
The “exon inclusion enrichment index” value of the first is higher: 1.45 for the first, 0.0449 for the second.

Going from AGUUACCGACGGGAGCUCCAGCACAGUGAAAUGGACAGAAGGGCAGAGCAA [G5A U7C C9A U10C] to AGUUGAAUGAGGGAGCUCCAGCACAGUGAAAUGGACAGAAGGGCAGAGCAA [C6A U7A G8U C9G U10A], the “exon inclusion enrichment index” value falls from 2.95 to 0.135.

Going from AGUUCGCCACGGGAGCUCCAGCACAGUGAAAUGGACAGAAGGGCAGAGCAA [G5C C6G U7C G8C C9A U10C] to AGUUCGCGCCGGGAGCUACAGCACAGUGAAAUGGACAGAAGGGCAGAGCAA [G5C C6G U7C U10C C18A], the “exon inclusion enrichment index” value rises from 3.14 to 3.25.

Going from AGUUAGGGAUGGGAGCUCCAGCACAGUGAAAUGGACAGAAGGCCAGAGCAA [G5A C6G U7G C9A G43C] to AGUUAGGGAUGGGAGCUCCAGCACAGUGAAGAGGACAGAAGGGCAGAGCAA [G5A C6G U7G C9A A31G U32A], the “exon inclusion enrichment index” value rises from 0.00197 to 0.0281.

Going from AGUUAGGGGCGGGAGCUCCAGCACAGUGAAAUGGACAGAAGGGCAGAGCAA [G5A C6G U7G C9G U10C] to AGUUCACACCGGGAGCUCCAGCACAGUGAAAUGGACAGAAGGGCAGAGCAA [G5C C6A U7C G8A U10C], the “exon inclusion enrichment index” value rises from 0.00245 to 1.71.

Compared with AGUUGCUGCUGGGAGCUCCAGCACAGUGAAAUGGACAGAAGGGCAAAGCAA [G46A], AGUUAGGGAUGGGAGCUCCAGCACAGUGUCAUGGACAGAAGGGCAGAGCAA [G5A C6G U7G C9A A29U A30C] is lower in “exon inclusion enrichment index” value: 0.245 for the first, 0.000854 for the second.

Going from AGUUCUUCUCGGGAGCUCCAGCAAUGUGAAAUGGACAGAAGGGCAGAGCAA [G5C C6U G8C C9U U10C C24A A25U] to AGUUAUAUUGGGGAGCUCCAGCACAGUGAAAUGGACAGAAGGGCAGAGCAA [G5A C6U U7A G8U C9U U10G], the “exon inclusion enrichment index” value falls from 1.94 to 0.0345.

Going from AGUUUCUUUUGGGAGCUCGGGCACAGUGAAAUGGACAGAAGGGCAGAGCAA [G5U G8U C9U C19G A20G] to AGUUAUAUAUGGGAGCUCCAAGACAGUGAAAUGGACAGAAGGGCAGAGCAA [G5A C6U U7A G8U C9A G21A C22G], the “exon inclusion enrichment index” value rises from 0.0362 to 0.0719.

First: AGUUCGCGCCGGGAGCUCCAGCACAGUGAAAUGGAGAGAAGGGCAGAGCAA [G5C C6G U7C U10C C36G]
Second: ACCUCACACAGGGAGCUCCAGCACAGUGAAAUGGACAGAAGGGCAGAGCAA [G2C U3C G5C C6A U7C G8A U10A]
The “exon inclusion enrichment index” value of the first is higher: 3.17 for the first, 0.119 for the second.

Going from AGUUAUAUAUGGGAGCUCCAGCACAGUGAAAUGGACAGGCGGGCAGAGCAA [G5A C6U U7A G8U C9A A39G A40C] to AGUUGAGGAUGGGAGCUCCAGCACAGUGAAAUGGACAGAAGGGCAGAGCAA [C6A U7G C9A], the “exon inclusion enrichment index” value rises from 0.102 to 0.123.

First: AGUUAGGGAUGGGAGCUCCAGCACAGUGAAAUGGACUAAAGGGCAGAGCAA [G5A C6G U7G C9A A37U G38A]
Second: AGUUAGGGAUGGGAGCUCCAGCACAGUGAAAUGGACAGAUGGGCAGAGCAA [G5A C6G U7G C9A A40U]
The “exon inclusion enrichment index” value of the first is lower: 0.00155 for the first, 0.00193 for the second.

Compared with AGUUAGGGAUGGGAGCUCCAGCAACGUGAAAUGGACAGAAGGGCAGAGCAA [G5A C6G U7G C9A C24A A25C], AAGUGACGACGGGAGCUCCAGCACAGUGAAAUGGACAGAAGGGCAGAGCAA [G2A U3G C6A U7C C9A U10C] is higher in “exon inclusion enrichment index” value: 0.0413 for the first, 2.22 for the second.

Going from AGUUGAAGAAGGGAGCUCCAGCACAGUGAAAGCGACAGAAGGGCAGAGCAA [C6A U7A C9A U10A U32G G33C] to AGUUGACGACGGGAGCUCCAGAGCAGUGAAAUGGACAGAAGGGCAGAGCAA [C6A U7C C9A U10C C22A A23G], the “exon inclusion enrichment index” value rises from 0.75 to 3.9.

First: AGUUUCUUUUAAGAGCUCCAGCACAGUGAAAUGGACAGAAGGGCAGAGCAA [G5U G8U C9U G11A G12A]
Second: AGUUUCUUUUACGAGCUCCAGCACAGUGAAAUGGACAGAAGGGCAGAGCAA [G5U G8U C9U G11A G12C]
The “exon inclusion enrichment index” value of the first is lower: 0.00894 for the first, 0.0306 for the second.

First: AGUUAUAUAUGGGAGCUCCAGCACCCUGAAAUGGACAGAAGGGCAGAGCAA [G5A C6U U7A G8U C9A A25C G26C]
Second: AGUUCUUCUCGGGAGCGCCAGCACAGUGAAAUGGACAGAAGGGCAGAGCAA [G5C C6U G8C C9U U10C U17G]
The “exon inclusion enrichment index” value of the first is lower: 0.0828 for the first, 1.65 for the second.

Going from AGUUCGCGCCGGGAGCUCCAGCACAGUGAAAUGCUCAGAAGGGCAGAGCAA [G5C C6G U7C U10C G34C A35U] to AGUUAGGGAUGGGAGCUCCAGCACAGAAAAAUGGACAGAAGGGCAGAGCAA [G5A C6G U7G C9A U27A G28A], the “exon inclusion enrichment index” value falls from 1.1 to 0.00156.

Compared with AGUUCACACAGGGAGCUCCACCACAGUGAAAUGGACAGAAGGGCAGAGCAA [G5C C6A U7C G8A U10A G21C], AGUUGAUUUUGGGAGCUCCAGCACAGUGAAAUGGACAGAAGGGCAGAGCAA [C6A G8U C9U] is higher in “exon inclusion enrichment index” value: 0.0715 for the first, 0.134 for the second.

With AGUUUCUUUUGGGAGCUCCAGCACAGUGAAAUGGACAGAAGGGCACCGCAA [G5U G8U C9U G46C A47C] the “exon inclusion enrichment index” value was 0.234.
